Results from patent US20240166765A1 (ICONIC THERAPEUTICS, published 2024).
Substitutions are numbered along the chain they refer to. Like-named read-outs stand apart in the source and are kept apart here.

T1: pig TF ECD-His (pig TF-His) protein (pig (Sus scrofa))
T1 construct: Extracellular domain with a C-terminal TG-His6 tag, used as analyte in Biacore; also called pTF
T1 chain: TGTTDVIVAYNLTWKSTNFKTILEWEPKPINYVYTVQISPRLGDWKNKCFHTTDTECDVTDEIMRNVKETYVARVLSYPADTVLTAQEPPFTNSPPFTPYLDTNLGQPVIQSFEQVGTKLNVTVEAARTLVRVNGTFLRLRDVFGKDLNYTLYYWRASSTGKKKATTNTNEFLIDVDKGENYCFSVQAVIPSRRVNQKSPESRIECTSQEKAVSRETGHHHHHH

T2: pig TF-His (pig (Sus scrofa))
T2 construct: also called pig TF ECD-His; pTF
T2 chain: T1 chain

T3: h1-107_r (human/rat chimera)
T3 construct: on HEK293 cells
T3 chain: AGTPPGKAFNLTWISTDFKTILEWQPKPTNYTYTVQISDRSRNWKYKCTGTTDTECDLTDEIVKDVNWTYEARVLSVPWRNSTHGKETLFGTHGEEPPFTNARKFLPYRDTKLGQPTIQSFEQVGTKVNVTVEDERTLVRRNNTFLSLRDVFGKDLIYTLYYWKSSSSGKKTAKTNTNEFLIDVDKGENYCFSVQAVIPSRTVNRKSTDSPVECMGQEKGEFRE

T4: hTF_N171H_T197K (human, UniProt P13726 33-251)
T4 construct: on HEK293 cells
T4 chain: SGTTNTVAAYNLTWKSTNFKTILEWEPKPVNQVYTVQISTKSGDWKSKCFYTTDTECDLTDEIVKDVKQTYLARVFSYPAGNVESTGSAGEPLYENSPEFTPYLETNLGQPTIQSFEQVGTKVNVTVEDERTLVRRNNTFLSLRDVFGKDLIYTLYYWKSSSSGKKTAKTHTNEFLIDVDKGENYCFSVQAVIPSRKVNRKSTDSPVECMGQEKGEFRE

T5: hTF_K149N (human, UniProt P13726 33-251)
T5 construct: the entry already holds K149N; on transfected HEK293 cells; not shown: transmembrane and cytoplasmic part of the construct expressed on HEK293 cells
T5 chain: T4 chain with K149N, H171N, K197T

T6: hTF_N171H_T197K (human, UniProt P13726 33-251)
T6 construct: the entry already holds N171H and T197K; on transfected HEK293 cells
T6 chain: T4 chain

T7: cynomolgus TF ECD-His6 (cynomolgus monkey (Macaca fascicularis))
T7 construct: made in Expi293 cells; also called TF-His; cTF
T7 chain: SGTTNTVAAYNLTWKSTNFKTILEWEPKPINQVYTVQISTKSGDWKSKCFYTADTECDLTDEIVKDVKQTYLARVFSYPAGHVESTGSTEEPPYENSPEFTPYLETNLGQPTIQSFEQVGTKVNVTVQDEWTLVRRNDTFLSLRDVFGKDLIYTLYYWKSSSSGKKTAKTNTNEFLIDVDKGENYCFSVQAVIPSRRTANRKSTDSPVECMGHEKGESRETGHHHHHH

B1: anti-TF antibody 1G (antibody, human IgG1, V domains shown)
VH: EVQLLESGGGLVQPGGSLRLSCAASGFTFSSYAMAWVRQAPGKGLEWVSAISGSGGLTYYADSVKGRFTISRDNSKNTLYLQMNSLRAEDTAVYYCAKAPYGYYMDVWGKGTTVTVSS
VL: not shown
notes: Human IgG1
B2: 1G (antibody, human IgG1, V domains shown)
VH: B1 VH
VL: not shown
notes: Human IgG1; also called antibody 1G
B3: anti-TF antibody 29D (antibody, human IgG1, V domains shown)
VH: QVQLVESGGGVVQPGRSLRLSCAASGFTFHSRGMHWVRQAPGKGLEWVAVITYDGINKYYADSVEGRFTISRDNSKNTLYLQMNSLRAEDTAVYYCARDGVYYGVYDYWGQGTLVTVSS
VL: not shown
notes: Human IgG1
B4: 54E (antibody, human IgG1, V domains shown)
VH: QVQLVQSGAEVKKPGASVKVSCKASGYTFANYYMHWVRQAPGQGLEWMGIINPSGGITVYAQKFQGRVTMTRDTSTSTVYMELSSLRSEDTAVYYCARGGSKVAALAFDIWGQGTMVTVSS
VL: DIQMTQSPSSLSASVGDRVTITCQASQDISNSLNWYQQKPGKAPKLLIYDASNLETGVPSRFSGSRSGTDFTFTISSLQPEDIATYYCQQYNFHPLTFGGGTKVEIK
notes: Human IgG1
B5: anti-TF antibody 25G9 (antibody, human IgG1, kappa, V domains shown)
VH: QVQLVQSGAEVKKPGASVKVSCKASGYTFRSYGISWVRQAPGQGLEWMGWVAPYSGNTNYAQKLQGRVTMTTDTSTSTAYMELRSLRSDDTAVYYCARDAGTYSPYGYGMDVWGQGTTVTVSS
VL: DIQMTQSPSTLSASVGDRVTITCQASQSIDSWLAWYQQKPGKAPKLLIYSASYLESGVPSRFSGSGSGTEFTLTISSLQPDDFATYYCQRFQSLPPFTFGGGTKVEIKR
notes: Human IgG1
B6: 25G1 (antibody, human IgG1, kappa, V domains shown)
VH: B5 VH
VL: B5 VL with Q24R, Q27H, S50K, R90L
notes: human IgG1
B7: 25A (antibody, human IgG1, V domains shown)
VH: B5 VH with R30D, S31V, V51I, S55N, Y106F
VL: DIQMTQSPSTLSASVGDRVTITCRASQSISSWLAWYQQKPGKAPKLLIYKASSLESGVPSRFSGSGSGTEFTLTISSLQPDDFATYYCQQFQSLPPFTFGGGTKVEIK
notes: human IgG1
B8: 25G9 (antibody, human IgG1, kappa, V domains shown)
VH: B5 VH
VL: B5 VL
notes: human IgG1
B9: anti-TF antibody 43D8 (antibody, human IgG1, kappa, V domains shown)
VH: QVQLQQWGAGLLKPSETLSLTCAVYGGSLSGYYWSWIRQPPGKGLEWIGEIGASGSTRYNPSLKSRVTISVDTSKNQFSLKLSSVTAADTAVYYCARDTPYYYEGGYYYYMDVWGKGTTVTVSS
VL: EIVLTQSPGTLSLSPGERATLSCRASQSVSSSFLAWYQQKPGQAPRLLIYGAYSRATGIPDRFSGSGSGTDFTLTISRLEPEDFAVYYCQQAGVVPYTFGGGTKVEIKR
notes: Human IgG1

How the values were obtained:
[1] = biological target: T8, human Tissue Factor (hTF), endogenously expressed on human TF-positive cells (human, UniProt P13726 33-295); test: flow cytometry competition on A431 cells, 100 nM unlabelled antibody, competitor 20 nM 43Ea-Alexa488
T8 construct: also called CD142

[2] = biological target: T1, pig TF ECD-His (pig TF-His) protein; test: Biacore, antibody captured by anti-human IgG on CM5 chip, pig TF-His as analyte
[3] = biological target: T8, human Tissue Factor (hTF), endogenously …; test: flow cytometry competition on A431 cells, 100 nM unlabelled antibody, competitor 20 nM 25A-Alexa488
[4] = biological target: T8, human Tissue Factor (hTF), endogenously …; test: cell-based or functional assay
[5] = biological target: T2, pig TF-His; test: SPR (Biacore), antibody captured by anti-human IgG on CM5 chip, pig TF-His in solution
[6] = biological target: T9, rabbit TF-His (rabbit (Oryctolagus cuniculus), UniProt P24055 33-250); test: SPR (Biacore), antibody captured by anti-human IgG on CM5 chip, rabbit TF-His in solution
T9 construct: also called rabbit TF ECD-His

[7] = biological target: T10, h159-219_r (human/rat chimera); test: live cell staining, flow cytometry
T10 construct: on HEK293 cells

[8] = biological target: T11, h78-107_r.v2 (human/rat chimera); test: live cell staining, flow cytometry
T11 construct: on HEK293 cells

[9] = biological target: T12, h1-77_r (human/rat chimera); test: live cell staining, flow cytometry
T12 construct: Human TF with ECD residues 1-77 replaced by the rat segment; on HEK293 cells

[10] = biological target: T3, h1-107_r; test: live cell staining, flow cytometry
[11] = biological target: T13, rTF (rat TF) (rat, UniProt P42533 29-252); test: live cell staining, flow cytometry
T13 construct: Expressed on the surface of transfected HEK293 cells

[12] = biological target: T14, r141-194_h (rat/human chimera, UniProt P42533 29-252); test: live cell staining, flow cytometry
T14 construct: on HEK293 cells

[13] = biological target: T4, hTF_N171H_T197K; test: live cell staining, flow cytometry
[14] = biological target: T15, hTF (human, UniProt P13726 33-251); test: live cell staining, flow cytometry
T15 construct: also called human TF; human Tissue Factor

[15] = biological target: T13, rTF (rat TF); test: live cell staining, flow cytometry; remark: listed apart in the source
[16] = biological target: T1, pig TF ECD-His (pig TF-His) protein; test: Biacore, antibody captured by anti-human IgG on CM5 chip, pig TF-His as analyte, 1:1 model
[17] = biological target: T5, hTF_K149N; test: live cell staining of transfected HEK293, flow cytometry
[18] = biological target: T6, hTF_N171H_T197K; test: as above
[19] = biological target: rTF (rat TF) on HEK293 cells (rat, UniProt P42533 29-252); test: as above
[20] = biological target: T16, mouse TF ECD-His6 (mouse, UniProt P20352 29-251); test: BLI (ForteBio Octet)
T16 construct: made in Expi293 cells; also called TF-His; mTF

[21] = biological target: T17, human TF ECD-His6 (human, UniProt P13726 33-251); test: BLI (ForteBio Octet)
T17 construct: made in Expi293 cells; the entry holds the ECD with the C-terminal TG-His6; also called TF-His; hTF

[22] = biological target: T7, cynomolgus TF ECD-His6; test: BLI (ForteBio Octet)
[23] = biological target: T16, mouse TF ECD-His6; test: SPR (Biacore), antibody on chip, TF-His titrated
[24] = biological target: T7, cynomolgus TF ECD-His6; test: SPR (Biacore), antibody on chip, TF-His titrated
[25] = biological target: T17, human TF ECD-His6; test: SPR (Biacore), antibody on chip, TF-His titrated

T9 sequence (P24055 other isoform, or with tags, fused parts or gaps): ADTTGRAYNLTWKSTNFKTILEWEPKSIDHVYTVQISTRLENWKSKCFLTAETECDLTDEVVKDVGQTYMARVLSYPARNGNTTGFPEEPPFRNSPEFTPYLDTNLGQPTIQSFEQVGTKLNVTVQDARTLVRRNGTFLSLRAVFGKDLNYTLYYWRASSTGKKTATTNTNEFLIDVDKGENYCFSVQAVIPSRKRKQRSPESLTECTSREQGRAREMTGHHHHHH

Binder	% GM-CSF, 2.56 nM antibody, MDA-MB-231 cells + FVIIa [4]	% GM-CSF, 6.4 nM antibody, MDA-MB-231 cells + FVIIa [4]	% GM-CSF, 16 nM antibody, MDA-MB-231 cells + FVIIa [4]	% GM-CSF, 40 nM antibody, MDA-MB-231 cells + FVIIa [4]	% GM-CSF, 100 nM antibody, MDA-MB-231 cells + FVIIa [4]	binding result [17]	binding result [18]	binding result [19]	Kd [20]	Kd [21]	Kd [22]	Kd [24]	also measured
B1	34%	9%	7%	7%	7%								% 43Ea binding [1]: 58%; binding result [2]: no binding; % 25A binding [3]: 75%
B2													binding result [5]: no binding; binding result [6]: no binding
B3	38%	15%	7%	6%	5%								% 43Ea binding [1]: 64%; binding result [2]: no binding; % 25A binding [3]: 70%
B4													Percent antibody binding to TF construct relative to hTF [7]: 142%; Percent antibody binding to TF construct relative to hTF [8]: 62%; Percent antibody binding to TF construct relative to hTF [9]: 0%; Percent antibody binding to TF construct relative to hTF [10]: 0%; Percent antibody binding to TF construct relative to hTF [11]: 0%; Percent antibody binding to TF construct relative to hTF [12]: 0%; Percent antibody binding to TF construct relative to hTF [13]: 89%; Percent antibody binding to TF construct relative to hTF [14]: 100%; Percent antibody binding to TF construct relative to hTF [15]: 0%
B5	60%	34%	26%	26%	25%								Kd [16]: 3.31 nM
B6						no binding	no binding	no binding (tested: 15 µg/ml (100 nM))	34.2 nM	3.97 nM	4.99 nM	0.78 nM	Kd [23]: 5.4 nM
B7						no binding	no binding	no binding (tested: 15 µg/ml (100 nM))	263 nM	8.45 nM	7.65 nM	5.42 nM	Kd [25]: 6.2 nM
B8						no binding	no binding	no binding (tested: 15 µg/ml (100 nM))	9.16 nM	35.8 nM	42.9 nM	16.4 nM	Kd [23]: 2.9 nM; Kd [25]: 13.3 nM
B9	57%	24%	11%	11%	12%								Kd [16]: 12.9 nM
